Results published in article doi:10.1101/315713 (bioRxiv, 2018).

Molecular target: the molecule itself

B1: Dipeptidase 3 (DPEP3), native, from testicular tissue and spermatozoa lysates (natural protein, UniProt Q9H4B8 36-463, looked up)
chain: AETTPGAPRALSTLGSPSLFTTPGVPSALTTPGLTTPGTPKTLDLRGRAQALMRSFPLVDGHNDLPQVLRQRYKNVLQDVNLRNFSHGQTSLDRLRDGLVGAQFWSASVSCQSQDQTAVRLALEQIDLIHRMCASYSELELVTSAEGLNSSQKLACLIGVEGGHSLDSSLSVLRSFYVLGVRYLTLTFTCSTPWAESSTKFRHHMYTNVSGLTSFGEKVVEELNRLGMMIDLSYASDTLIRRVLEVSQAPVIFSHSAARAVCDNLLNVPDDILQLLKKNGGIVMVTLSMGVLQCNLLANVSTVADHFDHIRAVIGSEFIGIGGNYDGTGRFPQGLEDVSTYPVLIEELLSRSWSEEELQGVLRGNLLRVFRQVEKVREESRAQSPVEAEFPYGQLSTSCHSHLVPQNGHQATHLEVTKQPTNRVPWRS
- stoichiometry N: 2

B2: DPEP3, free soluble native form in seminal plasma (natural protein, human (endogenous in seminal plasma), UniProt Q9H4B8 36-463, looked up)
chain: AETTPGAPRALSTLGSPSLFTTPGVPSALTTPGLTTPGTPKTLDLRGRAQALMRSFPLVDGHNDLPQVLRQRYKNVLQDVNLRNFSHGQTSLDRLRDGLVGAQFWSASVSCQSQDQTAVRLALEQIDLIHRMCASYSELELVTSAEGLNSSQKLACLIGVEGGHSLDSSLSVLRSFYVLGVRYLTLTFTCSTPWAESSTKFRHHMYTNVSGLTSFGEKVVEELNRLGMMIDLSYASDTLIRRVLEVSQAPVIFSHSAARAVCDNLLNVPDDILQLLKKNGGIVMVTLSMGVLQCNLLANVSTVADHFDHIRAVIGSEFIGIGGNYDGTGRFPQGLEDVSTYPVLIEELLSRSWSEEELQGVLRGNLLRVFRQVEKVREESRAQSPVEAEFPYGQLSTSCHSHLVPQNGHQATHLEVTKQPTNRVPWRS
- stoichiometry N: 2
